Experimental data: patent US20150086555A1

What was measured:
Details in all cases: remark: other sources report otherwise
[1] = molecular target: recombinant homotrimeric HA A/common magpie/Hong Kong/5052/07 H5N1 (Influenza A virus A/common magpie/Hong Kong/5052/2007(H5N1)); test: protein microarray, purified IgG, trimeric HA
[2] = molecular target: T1, recombinant soluble homotrimeric HA of A/common magpie/Hong Kong/5052/07 (H5N1) (Influenza A virus A/common magpie/Hong Kong/5052/2007(H5N1)); test: trimeric HA microarray, transfection supernatant set 2
[3] = molecular target: recombinant soluble homotrimeric HA, A/common magpie/Hong Kong/5052/07 H5N1 (Influenza A virus A/common magpie/Hong Kong/5052/2007(H5N1)); test: microarray, transfection SN IgG, trimeric HA
[4] = molecular target: T1, recombinant soluble homotrimeric HA of …; test: HA microarray, BCC supernatant
[5] = molecular target: T1, recombinant soluble homotrimeric HA of …; test: trimeric HA microarray, transfection supernatant set 5

B1: TCN-528 (5087_P17) (antibody, V domains shown)
VH: QVQLVQSGSEVKKPGASVKVSCKASGYTFTNYDINWIRQAPGQGLEWMGWINPNSGTTGSAQRFQGRVTITVDTSITTVYMELSSLRSDDTAIYYCARGRELLRLQHFLTDSQSERRDCFDPWGQGTLVTVSS
VL: DIQMTQSPSSLSASVGDRVTITCRANQDIGIYLNWYQQNPGKVPKLLLHGASSLQGGVPSRFSASGSGTDFTLTIHSLQPEDLATYYCQQSRRLPYTFGQGTRVELK
[1]
  Trimeric HA Binding: RLU: 25500 RLU
[2]
  Trimeric HA Binding: RLU: 45300 RLU

B2: TCN-550 (5096_F06) (antibody, V domains shown)
VH: QVQLQESGPGLVKPSETLSLTCTVSGASINSHYWSWIRQPPGKGLEWIGYVYYSGSTTYNPSLKSRVTLSVDTSKNQFSLNLSSVTAADTAFYYCARHPYDVLTGSGDWFDPWGQGTLVTVSS
VL: SYVLTQAPSVSVAPGQTARITCGGNAIGSKKVHWYQHKAGQAPVLVVYDDTDRPSGIPERFSGSNSWSTATLTINRVEAGDEADYYCQVWDFTIDHVVFGGGTKLTVL
[1]
  Trimeric HA Binding: RLU: 753 RLU
[3]
  Trimeric HA Binding: RLU: 993 RLU

B3: TCN-553 (5261_C18) (antibody, V domains shown)
VH: QVQVVQSGTEVKKPGSSVKVSCQTSGGRFMSYAITWVRQAPGQGLEWMGGIVPVFGTANYAQKFQGRVTITTDDSTRTAYMELSSLRSEDTAVYYCGFRYGSGYGFDSWGQGTLVTVSS
VL: EIVLTQSPGTLSLSPGERATLSCRASQSVSSSYLAWYQKKPGQAPRLLIYGASTRATGIPDRFTGSGSGTDFTLSISRLEPEDFAVYYCQHFGTSVFTFGGGTKVEIK
[1]
  Trimeric HA Binding: RLU: 22800 RLU
[4]
  Trimeric HA Binding: RLU: 26000 RLU
[3]
  Trimeric HA Binding: RLU: 39200 RLU

B4: TCN-521 (3280_D18) (antibody, V domains shown)
VH: EVQLVQSGGGLVQPGGSLRLACVVSGFTVTSNYITWVRQAPGKGLEWVSVIYSHGRAYYSASVNGRFTISRHTSKNTVYLEMNSLRPEDTAVYYCAGGGLVGGYDEYFFDYWGQGTLATVSS
VL: ETVLTQSPGTLSLTPGERATLSCRVGQSVSGSHLAWYQQKPGQAPRLLIYGASSRATGIPDRFGGSVSGTDFTLTISRLEPEDSAVYYCQQYGDSRYTFGQGTKLEIK
[4]
  Trimeric HA Binding: RLU: 13500 RLU

B5: TCN-543 (5081_G23) (antibody, V domains shown)
VH: QVHLVQSGAEVRKPGDSVKVSCKTSGYTFSTYPVAWVRQVPGQGLEWMGWISTYNGNTNFAQNFQGRVTLTTDTTTNTAYMEVRSLKFDDTAVYYCARVEGSYRDFWNNQNRFDPWGQGTLVTVSS
VL: SYVLTQPPSVSVAPGQTARISCGGSNIGGKSVHWYQQKPGQAPVLVVYDDSGRPSGIPERFSGSNSGDTATLTISRVEAGDEADYFCQVWDNFGGVFGTGTKVTVL
[1]
  Trimeric HA Binding: RLU: 679 RLU
[5]
  Trimeric HA Binding: RLU: 1070 RLU

B6: TCN-557 (5081_A04) (antibody, V domains shown)
VH: QVQLVQSGAEVKKPGASVKVSCKASGHTFTGYYIHWVRQAPGQGLEWMGWINPDSGATSSAQNFQGRVTMTGDTSSSTAYMELSRLSFDDTAVYYCARVLFTSPFDFWGEGTLVTVSS
VL: QAVVTQEPSLAVSPGGTVTLTCGSSTGAVTRGHYPYWFQQKPGQAPRALIYDSAGNRHSWTPARFSGSLLGGKAALTLSGAQPEDEAEYYCLLSYSGVWVFGGGTKLTVL
[1]
  Trimeric HA Binding: RLU: 23700 RLU
[3]
  Trimeric HA Binding: RLU: 54900 RLU

B7: TCN-522 (3212_I12) (antibody, V domains shown)
VH: QVQLQQWGAGLLKPSETLSLTCTVSGGSLTDYSWNWIRQPPGKGLEWIGDTLHNGYTNYNPSLRGRVSISIDTSKNQVSLRLTSVTAADTALYYCARGSGGYGGFDYFGKLRTWDFWGQGTLVTVSS
VL: DIQLTQSPSSLSASVGDRVTITCRASQGIRNDLGWYQQKPGNAPKRLIFGASSLQSGVPSRFSGSGSGTEFTLTISSLQPEDFATYYCLQHNSYPYTFGQGTKLEIK
[1]
  Trimeric HA Binding: RLU: 15100 RLU
[2]
  Trimeric HA Binding: RLU: 21400 RLU

B8: TCN-555 (5246_L16) (antibody, V domains shown)
VH: QVQLVQSGAEVKRPGSSVKVSCTASGGIFRKNAISWVRQAPGQGLEWMGGIIAVFNTANYAQKFQNRVKITADESGNTAYMELSSLTSDDTAVYYCASHPKYFYGSGSYPDFWGQGTLVTVSS
VL: QSALTQPRSVSGSPGQSITISCTGGSSDIGASNSVSWYQQHPGKAPKLVIFDVTERPSGVPHRFSGSKSGNTASLTVSGLQPDDEADYFCCAYGGKYLVVFGGGTKVTVL
[1]
  Trimeric HA Binding: RLU: 17000 RLU
[4]
  Trimeric HA Binding: RLU: 16100 RLU
[3]
  Trimeric HA Binding: RLU: 33600 RLU

B9: TCN-527 (5086_C06) (antibody, V domains shown)
VH: QVQLQESGPGLVKPSETLSLNCAVSGGSISNYYWSWIRQPPGKGLEWIGYISYNGRPKYNPSLTSRVTISVDTSKDQFSLELRSVTAADTALYYCARETRFGELLSPYDAFEIWGQGTMVTVSS
VL: DIQMTQSPSSLSASVGDRVTMTCRASQNIRSYLNWYQQRPGTAPKLLIYAASTLHSGVPSRFSGGGSGTDFTLTINNLQPEDFASYYCQQSYDNPQTFGQGTKVEIK
[1]
  Trimeric HA Binding: RLU: 24600 RLU
[2]
  Trimeric HA Binding: RLU: 43800 RLU

B10: TCN-552 (5249_I23) (antibody, V domains shown)
VH: QVQVVQSGAEVKKPGSSVRVSCQASGGTFMNYAIIWVRRAPGQGLEWMGGIIPVFPTPNYAQMFQGRVTISTDESRSTSFLELTNLRYEDTAVYYCARRIYHGGNSGFDFWGQGTLVTVSS
VL: EIVLTQSPATLSLSPGERATLSCRASQSVGNYLAWYQQKPGQAPRLLIYDSSNRAPGIPARFSGSGSGTDFTLTISSLAPEDFAVYYCQQRSKWPPMYSFGHGTKLEIK
[1]
  Trimeric HA Binding: RLU: 19400 RLU
[4]
  Trimeric HA Binding: RLU: 42200 RLU
[3]
  Trimeric HA Binding: RLU: 34600 RLU

B11: TCN-542 (5079_A16) (antibody, V domains shown)
VH: QVQLQESGPGLVKPSQTLSLTCTVSGGSISSGNYYWNWVRQHPGKGLEWIGYIYYRGSTFYNPSLKSRVTISIDTSKNQFSLRLSSVTAADTAVYYCAKDTRSSLDNYQYGMDVWGQGTTVTVSS
VL: QTVVTQEPSLTVSPGGTVTLTCASSTGAVTSSYFPNWFQQKPGQAPRPLIYSTTIRHSWTPARFSGSLLGGKAALTLSGVQPEDEADYYCLLYSGGDPVAFGGGTKLTVL
[1]
  Trimeric HA Binding: RLU: 1540 RLU

B12: TCN-541 (5062_M11) (antibody, V domains shown)
VH: QVQLQESGPGLVKPSETLSLTCTVSGGSINSYYWNWIRQPPGKGLEWIGYIYHSGSTNYNPSLKSRVTISVDTSKNQFSLQLSSVTAADTAVYYCARLRTDYGDPDSVYYYGMDVWGQGTTVTVSS
VL: SYELTQPPSVSVSPGQTARITCSGDALPKQNAYWYQQKPGQAPVLLIYKDSERPSGIPERFSGSSSGTTVTLTISGVQAEDEADYYCQSADSSGTSWVFGGGTKLTVL
[1]
  Trimeric HA Binding: RLU: 728 RLU

B13: TCN-551 (5243_D01) (antibody, V domains shown)
VH: EVQLVQSGSEVKKPGESLKISCKGSGYSFSNYWIGWVRHMPGKGLEWMGIIYPGDSDTRYSPSFQGQVTMSADKSSSTVYLQWSSLKASDTAIYYCARRGGHSFGYGSGGDTHSEFDSWGQGTLVTVSS
VL: QSVLTQSPSVSAAPGQKVTISCSGSDSNIGDYFVCWYQHLPGKPPQLLIYENNKRPSGIPDRFSGSKSGTSATLGITGIQTGDEADYYCATWDGSLSAWVFGGGTKLTVL
[1]
  Trimeric HA Binding: RLU: 907 RLU
[4]
  Trimeric HA Binding: RLU: 45700 RLU

B14: TCN-539 (5056_A08) (antibody, V domains shown)
VH: QVQLVESGGGVVQPGRSLRLSCAASEITFITYAMHWVRQAPGKGLEWVALISDDGSNKFYADSVKGRFTISRDNSKNTLYLQMNSLRAEDTAAYYCAREGVYFDSGTYRGYFDYWGQETLVTVSS
VL: EIVLTQSPATLSLSPGERATLSCRASQSVSSYLAWYQQKPGQAPRLLIYDASNRATGIPARFSGSGSGTDFTLTISSLEPEDFAVYYCQQRSHWPPITFGQGTRLEIK
[4]
  Trimeric HA Binding: RLU: 3960 RLU
